The target of experiment [1] is D3H44 light chain S131T_L135F_S176F_T178F (Kabat), N-terminal HA or FLAG tag. Briefly: LCCA co-expression, competing light chain m34, L1:L2 DNA 1:3 normalized to 1:1, SPR tag read-out.
The target is the same in experiment [2]. The experiment in a line: LCCA co-expression, competing light chain m34, L1:L2 DNA 1:9 normalized to 1:1, SPR tag read-out.
For experiment [3], the target named is D3H44 light chain F116A_L135V (Kabat), N-terminal HA or FLAG tag. Briefly: LCCA co-expression, competing light chain m33, L1:L2 DNA 1:3 normalized to 1:1, SPR tag read-out.
Experiment [4] has the same target. Briefly: LCCA co-expression, competing light chain m33, L1:L2 DNA 1:9 normalized to 1:1, SPR tag read-out.
Experiment [5] addresses D3H44 Fab heavy chain L143A_Q179K. The experiment in a line: LCCA, L1:L2 DNA 1:3 normalised to 1:1, SPR of light chain tags; competitor m33.
The target in experiment [6] is D3H44 Fab heavy chain L143E_K145T_S188L. Described as above.
Experiment [7] addresses D3H44 light chain Q124R_Q160K_T178R (Kabat) with N-terminal HA or FLAG tag. Briefly: LCCA, SPR read-out of light-chain tags; light-chain DNA 1:3 normalized to 1:1; competing light chain m22.
Experiment [8] shares this target. Briefly: LCCA, SPR read-out of light-chain tags; light-chain DNA 1:3 normalized to 1:1; competing light chain m30.
Experiment [9] concerns the target D3H44 light chain S131E (Kabat) with N-terminal HA or FLAG tag. The experiment in a line: LCCA, SPR read-out of light-chain tags; light-chain DNA 1:3 normalized to 1:1; competing light chain m20.
The target in experiment [10] is D3H44 light chain Q124E_S131T_T178F_T180E (Kabat) with N-terminal HA or FLAG tag. The description is as above.
Experiment [11] addresses D3H44 light chain Q124R (Kabat) with N-terminal HA or FLAG tag. Briefly: LCCA, SPR read-out of light-chain tags; light-chain DNA 1:3 normalized to 1:1; competing light chain m24.
In experiment [12] the target is D3H44 light chain Q124E_T178E (Kabat) with N-terminal HA or FLAG tag. The experiment in a line: LCCA, SPR read-out of light-chain tags; light-chain DNA 1:3 normalized to 1:1; competing light chain m20.
Experiment [13] addresses D3H44 light chain Q124E_Q160E_T180E (Kabat) with N-terminal HA or FLAG tag. The experiment is described as above.
Experiment [14] has as its target D3H44 light chain Q124E_Q160E_T178E (Kabat) with N-terminal HA or FLAG tag. The experiment is described as above.
The target of experiment [15] is D3H44 light chain Q124E_V133E_Q160F (Kabat) with N-terminal HA or FLAG tag. The experiment in a line: LCCA, SPR read-out of light-chain tags; light-chain DNA 1:3 normalized to 1:1; competing light chain m23.
Experiment [16] has as its target D3H44 light chain Q124R_Q160K_T178R (Kabat) with N-terminal HA or FLAG tag. The experiment in a line: LCCA, SPR read-out of light-chain tags; light-chain DNA 1:3 normalized to 1:1; competing light chain m27.
Experiment [17] shares this target. Briefly: LCCA, SPR read-out of light-chain tags; light-chain DNA 1:3 normalized to 1:1; competing light chain m25.
The target is the same in experiment [18]. The experiment in a line: LCCA, SPR read-out of light-chain tags; light-chain DNA 1:3 normalized to 1:1; competing light chain m17.
Experiment [19] concerns the target D3H44 light chain Q124E_Q160E_T180E (Kabat) with N-terminal HA or FLAG tag. The experiment in a line: LCCA, SPR read-out of light-chain tags; light-chain DNA 1:9 normalized to 1:1; competing light chain m21.
Experiment [20] concerns the target D3H44 light chain Q124E_T180E (Kabat) with N-terminal HA or FLAG tag. Briefly: LCCA, SPR read-out of light-chain tags; light-chain DNA 1:3 normalized to 1:1; competing light chain m18.
Experiment [21] addresses D3H44 light chain Q124E_Q160E_T180E (Kabat) with N-terminal HA or FLAG tag. The experiment is described as above.
For experiment [22] the target is unchanged. Briefly: LCCA, SPR read-out of light-chain tags; light-chain DNA 1:3 normalized to 1:1; competing light chain m16.
Experiment [23] concerns the target D3H44 light chain Q124R_T178R (Kabat) with N-terminal HA or FLAG tag. The experiment in a line: LCCA, SPR read-out of light-chain tags; light-chain DNA 1:3 normalized to 1:1; competing light chain m22.
For experiment [24], the target named is D3H44 light chain Q124E_Q160E_T180E (Kabat) with N-terminal HA or FLAG tag. Briefly: LCCA, SPR read-out of light-chain tags; light-chain DNA 1:3 normalized to 1:1; competing light chain m26.
For experiment [25], the target named is D3H44 light chain Q124R_Q160K_T178R (Kabat) with N-terminal HA or FLAG tag. Briefly: LCCA, SPR read-out of light-chain tags; light-chain DNA 1:3 normalized to 1:1; competing light chain m28.
The target of experiment [26] is D3H44 light chain Q124E_Q160E_T180E (Kabat) with N-terminal HA or FLAG tag. Briefly: LCCA, SPR read-out of light-chain tags; light-chain DNA 1:3 normalized to 1:1; competing light chain m21.
For experiment [27], the target named is D3H44 light chain Q124E_S131T_T178F_T180E (Kabat) with N-terminal HA or FLAG tag. The description is as above.
The target in experiment [28] is D3H44 light chain Q124R_T178R (Kabat) with N-terminal HA or FLAG tag. The experiment in a line: LCCA, SPR read-out of light-chain tags; light-chain DNA 1:9 normalized to 1:1; competing light chain m17.
Experiment [29] has as its target D3H44 light chain Q124E_S176L_T180E (Kabat) with N-terminal HA or FLAG tag. Briefly: LCCA, SPR read-out of light-chain tags; light-chain DNA 1:3 normalized to 1:1; competing light chain m20.
Experiment [30] addresses D3H44 light chain Q124E_S131T_T178Y_T180E (Kabat) with N-terminal HA or FLAG tag. The description is as above.
Experiment [31] addresses D3H44 light chain T178R (Kabat) with N-terminal HA or FLAG tag. The experiment in a line: LCCA, SPR read-out of light-chain tags; light-chain DNA 1:3 normalized to 1:1; competing light chain m19.
Experiment [32] deals with D3H44 light chain Q124R_Q160K_T178R (Kabat) with N-terminal HA or FLAG tag. The experiment in a line: LCCA, SPR read-out of light-chain tags; light-chain DNA 1:3 normalized to 1:1; competing light chain m29.
In experiment [33] the target is D3H44 light chain T178R (Kabat) with N-terminal HA or FLAG tag. Briefly: LCCA, SPR read-out of light-chain tags; light-chain DNA 1:3 normalized to 1:1; competing light chain m17.
For experiment [34], the target named is D3H44 light chain Q124R_T178K (Kabat) with N-terminal HA or FLAG tag. The description is as above.
The target of experiment [35] is D3H44 light chain Q124R_T178R (Kabat) with N-terminal HA or FLAG tag. The experiment is described as above.
Experiment [36] has as its target D3H44 light chain Q124K_T178R (Kabat) with N-terminal HA or FLAG tag. The description is as above.
The target of experiment [37] is D3H44 Fab heavy chain L143E_K145T. Briefly: LCCA, L1:L2 DNA 1:3 normalised to 1:1, SPR of light chain tags; competitor m32.

Several values for one entry are separate records, joined by “and”; a condition that tells them apart may be missing. Equal values may be shown once.

On to “D3H44 Fab heavy chain A139G_F174V_V190A (Kabat), C-terminal ABD2-His6 tag”, for which the H1L1:H1L2 normalized median ratio in [1] is 51 of 100; in [2] it was 60 of 100; in experiment [3], 49 of 100; in experiment [4], 40 of 100. In addition, the values for the H1L1:H1L2 normalized median scalar value ln(r1/f1) in experiment [1] and in [2] were 0.03 and 0.42, respectively.

D3H44 light chain Q124E_V133Y_T180E: in [5], the H1L1:H1L2 normalized median ratio came to 96% and the H1L1:H1L2 normalized median scalar value ln(r1/f1) amounted to 3.13. Further, in experiment [6], the H2L2:H2L1 normalized median ratio amounted to 44%.

As to “D3H44 Fab heavy chain Q179R (Kabat) with C-terminal ABD2-His6 tag”, the H2L2:H2L1 normalized median ratio in experiment [7] was determined as 4%; in experiment [8], 3%; in experiment [9], 97%; in [10], 96%.

As for “D3H44 Fab heavy chain L143E_K145T (Kabat) with C-terminal ABD2-His6 tag”, the H1L1:H1L2 normalized median ratio in experiment [8] is 47%; in experiment [11], 85%; in [12], 41%; in experiment [13], 28%; in experiment [9], 53%; in [14], 41%. Moreover, the H1L1:H1L2 normalized median ratio in experiment [15] is 15%; in [16] it was 59%; in experiment [17], 59%; in [18] it was 72%. Further, the H1L1:H1L2 normalized median scalar value ln(r1/f1) in experiment [8] was -0.14; in experiment [11], 1.75; in experiment [16], 0.36; in experiment [17] it was 0.37; in [18], 0.95 and 0.96.

Turning to “D3H44 Fab heavy chain S186R (Kabat) with C-terminal ABD2-His6 tag”, the H2L2:H2L1 normalized median ratio is 86% in experiment [19]; 96% in [20]; 72% in experiment [21]; 82% in experiment [22]; 10% in experiment [23]; 10% in [7]. In addition, the H2L2:H2L1 normalized median ratio in experiment [24] was determined as 83%; in [25], 5%; in experiment [26], 81%; in experiment [27], 90%; in experiment [28], 14%; in [12] it was 96%. Further, the H2L2:H2L1 normalized median ratio in experiment [29] was 95%; in experiment [13] it was 80%; in [14], 95%; in [10], 90%; in experiment [30], 88%; in [31] it was 4%. The H2L2:H2L1 normalized median ratio in experiment [16] stood at 4%; in experiment [17], 5%; in [32] it was 12%; in experiment [33], 28%; in experiment [34], 17%; in [35] it was 19%. Also, the figures for the H2L2:H2L1 normalized median ratio in experiment [18] and in experiment [36] were 20% and 18%, respectively.

In turn, D3H44 light chain Q124R_T178R showed an H1L1:H1L2 normalized median scalar value ln(r1/f1) in experiment [37] of -0.16.

The values are drawn from patent US11306156.
